Reference: paper PMC3799227

Legend:
[1] = tested on: BaeR (Salmonella enterica serovar Typhimurium); assay: EMSA
[2] = tested on: BaeR-P (phosphorylated BaeR) (Salmonella enterica serovar Typhimurium); assay: EMSA

Question: Which binding [1] does the source give for sodA promoter fragment A (wild type) here?
Answer: The binding was 0.9 µM.

Question: And the binding [2]?
Answer: The binding was 0.6 µM.
